Laboratory results published in the supplement of paper PMC9170038.

Test system: MS2 coat protein
Experiment: apparent KD of MS2 coat protein; designed switch direction (-1 OFF switch, 1 ON switch): -1; higher = weaker reporter binding
Method in brief: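 RNA switches sharing common flanks were transcribed by stalled E. coli RNA polymerase on Illumina chips. A doubling series of SNAP-549-labelled MS2 coat protein, from 0.7 or 1.5 nM to 3 µM, was applied in Tris-HCl pH 7.5 buffer with KCl, MgCl2, BSA, DTT, tRNA and Tween-20. Each step lasted 0.8–1.5 h at the bottom of the series and 10–20 min at the top. Normalised cluster fluorescence was curve-fitted, giving apparent KD as the per-design median over clusters.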

[1] = input ligand: microRNA oligo, concentration not stated
[2] = Eterna round: R95, input ligand: FMN 200 uM
[3] = Eterna round: R95, input ligand: microRNA oligo, concentration not stated
[4] = Eterna round: R95, input ligand: none

| Sequence | apparent KD of MS2 coat protein (input ligand: FMN 200 uM) | apparent KD of MS2 coat protein [1] | apparent KD of MS2 coat protein (input ligand: none) | apparent KD of MS2 coat protein [2] | apparent KD of MS2 coat protein [3] | apparent KD of MS2 coat protein [4] |
| --- | --- | --- | --- | --- | --- | --- |
| GGAAGAGAGUUAGGAUAUAUAAGAAGAAUGUGGGUAGAAGGAACGAAACAUGAGGAUCACCCAUGUCCCAUGUUGAGGAGGAGG (Eterna round: R96, puzzle: Exclusion NG 1) | 1530 nM | 349 nM | 560 nM | – | – | – |
| GAAGAAAACCAAGGAUAUCGGAAAGGAAGUGUACGAGAAGGUGGACAUGGACAUGAGGAUCACCCAUGUGGCCCGAUGCCGUGG [PowerStrip EXNG 1.5] (Eterna round: R96, puzzle: Exclusion NG 1) | 54.8 nM | 33.5 nM | 38.1 nM | – | – | – |
| GGAUCGAGUGUGAGGAUAUACCUAUGGAAACAUAGGUAGAAGGCACAUGAGGAUCACCCAUGUUCCUACGGUCC [Mat - Exclusion 4 - Eli Mod - D8] (Eterna round: R97, puzzle: Brourd's mod of Exclusion 4) | 658 nM | – | 75.5 nM | – | – | – |
| AAACAGCAAGGAUAUACGGGCUGUGCUUUUCAUUUCUUACAACAUGAGGAUCACCCAUGUAGAAGGUGCAACAA [Ex2 #5] (Eterna round: R97, puzzle: Exclusion 2) | 80.4 nM | – | 24.5 nM | – | – | – |
| ACAUGAGGAUCACCCAUGUAAUGAAGGGUACUAUACUAAACGUAGGAUAUCGAUGUAAGAUUGUACGAGAAGGACGAUUGCCUU [JR_ExcNG3_Sub051] (Eterna round: R96, puzzle: Exclusion NG 3) | – | 29.3 nM | – | – | – | – |
| GAAAAGGUAGGAUAUACGAAAAAAAAGGGUAGAAAAAAAACACAUGAGGAUCACCCAUGUAGAAGGACCAAAAG [salish99_ex2_r3_015] (puzzle: Exclusion 2) | – | – | – | 57.8 nM | 28.7 nM | 27.2 nM |
| CUAGCGGAUGUAGGAUAUCGGACUGUUUCAGUCUGAGAAGGACAUGAGGAUCACCCAUGUAUAGCUGCGUGAGUAGCUCGCUAG [JL ENG1 3.96] (Eterna round: R96, puzzle: Exclusion NG 1) | 39.2 nM | 17.5 nM | 19.8 nM | – | – | – |
| GUGAGCAGACGGAGAUCCAACAUGAGGAUCACCCAUGUCUCAUAAGCUUUUUGCUCAUCUUAUUGUACCUUGGUGCU [Mat - Sensor v3 - turn-off var 1 - JL Mod - D20] (puzzle: Sensor v3, turn-off variant 1) | – | – | – | 291 nM | 8.27 nM | 253 nM |
| GAUGGCUAAGGAUAUACAUAGAAGAAUUGAACUUGGAUUAUACAUGAGGAUCACCCAUGUAGAAGGUAGUCAUC [ExGluten 3 - Jieux - Exclusion 2] (Eterna round: R97, puzzle: Exclusion 2) | 82.9 nM | – | 24.6 nM | – | – | – |
| UUUUUAUAUGAAGGAUAUACUUAACAUGAGGAUCACCCAUGUGGUGUUGUGAGUGAGUGAGUUUAGUAGAAGGUCAAGUACUUU [JMF's solution 37] (Eterna round: R96, puzzle: Exclusion NG 2) | 614 nM | 380 nM | 574 nM | – | – | – |
| CUCCUCCCGAAGGAUAUCCACGCCAACUUCGUAGGAGAAGGUCGGACAUGAGGAUCACCCAUGUGGCCAUGGUU [Gezateza] (puzzle: Exclusion 6) | – | – | – | – | 16 nM | – |
| GGGCCCGGUGUGAGGAUAUGCUCGGGUAAAUCUGGGUAGAAGGCACAUGAGGAUCACCCAUGUAAGCCGGGCCC [-34.4, -32.3 kcal, A 23%, 7bis-0] (Eterna round: R97, puzzle: Brourd's mod of Exclusion 4) | 15.2 nM | – | 19.3 nM | – | – | – |
| GUCAUCAAACAUGGGUGUAACAUGAGGAUCACCCAUGUUAUCAAGUUUUUUGCUCGUCUUAUAAUAAGUUUGAUGAC [Antenna 13 - Jieux - Sensor, turn-off variant 1] (Eterna round: R97, puzzle: Sensor, turn-off variant 1) | 87.5 nM | – | 97.6 nM | – | – | – |
| GCACGAAGUGUAGGAUAUCUGUGCGAUUAGCUCAGAGAAGGACACAUGAGGAUCACCCAUGUUUUCCGCGGAAGCAAUACGUGC [Eli exng1 - 058] (Eterna round: R96, puzzle: Exclusion NG 1) | 26.5 nM | 13.2 nM | 17.9 nM | – | – | – |
| UAUUAGUAAGGAUAUCCUUGCAUGGACGAAAGUCCAUGCAAGGAGAAGGUACAUGAGGAUCACCCAUGUUUAUU [Mod of Fisker 15 - Jieux - Exclusion 4] (Eterna round: R97, puzzle: Exclusion 4) | 18 nM | – | 17.4 nM | – | – | – |
| CAGUAUCUAGGAUAUACGCUGGGUACUAUUCUCAAGUCAGGACAUGAGGAUCACCCAUGUAGAAGGAGAAGCAU [EX2 A.28] (Eterna round: R97, puzzle: Exclusion 2) | 32.5 nM | – | 34 nM | – | – | – |
| AGUUGGCGAGGAUAUACAUGAGGAUCACCCAUGUGAGAGAUACUGGUGAGGUCGAUUAGUAGAAGGCGCUGACA [Mat X3R4 m15] (Eterna round: R97, puzzle: Exclusion 3) | 137 nM | – | 654 nM | – | – | – |
| AAUAAAGGAGGAUAUACUAAAAUAUGAAUAAAAUAAAUAAAACAUGAGGAUCACCCAUGUAGAAGGCCUAAUAA [JMF's Not so obvious solution 3] (puzzle: Exclusion 2) | – | – | – | 22.8 nM | 23.9 nM | 25.2 nM |
| UGCUGAGUUGACAGUGGUAACAUGAGGAUCACCCAUGUAUGUUUGUGCUUAAGCGGGUUGUUUCUUGUUCGUCUCUC [Eternabot (L2) Solution 5] (Eterna round: R97, puzzle: Sensor, turn-off variant 1) | 262 nM | – | 349 nM | – | – | – |
| GACGAGUGAGGAUAUGGUGAGUAGUGCCUGAGCGCUGCUCACCAGAAGGCACAUGAGGAUCACCCAUGUAUGUC [Mat - Exclusion 4 - Mod of JL - D11] (puzzle: Exclusion 4) | – | – | – | – | 13.2 nM | – |
| CAGUACUGAGGAUAUACAUGAGGAUCACCCAUGUGCUCCAGCUAGGAAACUAGCAAAAGUAGAAGGCAGUACUG [828 mod 2 m8] (Eterna round: R97, puzzle: Exclusion 3) | 3960 nM | – | 101 nM | – | – | – |
| AGUAACCGUCACGAAAGUGAUGGUUACACAAGCAAAUGUACAUGAGGAUCACCCAUGUCCUCAUUUGCUCGUCUUAU [Sensor 3 - 45] (puzzle: Sensor v3, turn-off variant 2) | – | – | – | 17.2 nM | 379 nM | 18.3 nM |
| AGCCAUGAAGGAUAUACAUGAGGAUCACCCAUGUUGCGGACAGGUUUGAUCGGCGUAGGUAGAAGGUCAAGUAG [Eternabot (L2) Solution 62] (Eterna round: R97, puzzle: Exclusion 3) | 28.2 nM | – | 22.1 nM | – | – | – |
| AAACCCUGAGGAUAUAGAUAACAACAAAGCCUCACGUGCCAACAUGAGGAUCACCCAUGUAGAAGGCAGGCCAA [Mod R3 Insanara 4 - Jieux - Exclusion 2] (Eterna round: R97, puzzle: Exclusion 2) | 14.7 nM | – | 17.2 nM | – | – | – |
| UUAUAGAGAGGAUAUAUAAUGUGAAACAUGAGGAUCACCCAUGUAAUAUUAUGGAUGUAAAUAGAAGGCUCAAUUU [Mat - Exclusion 5 - JL mod - D14] (puzzle: Exclusion 5) | – | – | – | 29.3 nM | 30.6 nM | 32.4 nM |
